# Measurements as given in publication PMC9675734.
# Experiments:
# [1] = target: soluble domain of Arabidopsis thaliana cytochrome c1 (Arabidopsis thaliana) (UniProt Q9FKS5); experiment: SPR; SPRi; Cc1 immobilised by direct amine coupling on a CS SPRi-Biochip (10 and 15 uM drops); WT or Y48pCMF Cc flowed at 2.5 to 10 uM, 50 uL/min; 298 K; 10 mM sodium phosphate buffer pH 6.5; reference spots with rabbit serum albumin subtracted; 1:1 binding model
# [2] = target: soluble domain of Arabidopsis thaliana cytochrome c1 (Arabidopsis thaliana) (UniProt Q9FKS5); experiment: dynamic force spectroscopy (AFM); Cc1 anchored on Au(111); Cc (E104C) anchored directly to Au-coated AFM tips by thiol-Au; retraction velocities 0.5 to 4 um/s; 50 mM phosphate buffer pH 6.5; Bell-Evans model
# Target sequence in this assay (Q9FKS5 64-265): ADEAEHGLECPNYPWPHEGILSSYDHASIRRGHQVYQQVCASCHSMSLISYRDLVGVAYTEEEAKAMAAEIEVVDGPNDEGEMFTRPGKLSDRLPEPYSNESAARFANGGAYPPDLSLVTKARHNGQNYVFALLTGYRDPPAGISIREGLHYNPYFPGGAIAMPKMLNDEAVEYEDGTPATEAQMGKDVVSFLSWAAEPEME
# [3] = target: soluble domain of Arabidopsis thaliana cytochrome c1 (Arabidopsis thaliana) (UniProt Q9FKS5); experiment: single-molecule force spectroscopy (AFM); Cc1 anchored on Au(111); Cc (E104C) anchored to the silicon AFM tip through a PEG27 linker; retraction at 1 um/s; 50 mM phosphate buffer pH 6.5; room temperature
# Target sequence in this assay (Q9FKS5 64-265): as above
# [4] = target: soluble domain of Arabidopsis thaliana cytochrome c1 (Arabidopsis thaliana) (UniProt Q9FKS5)
# Target sequence in this assay (Q9FKS5 64-265): as above
# Chain of Y48pCMF cytochrome c E104C (P99999 1-48, stated change not applied): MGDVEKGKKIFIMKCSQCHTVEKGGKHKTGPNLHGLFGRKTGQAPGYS
"conductance of current blinks (EC-STM static break junction, bias 0.8 V, 50 mM phosphate buffer pH 6.5), Gaussian fit of the main peak [4]",Substance,Kd [1],koff [1],kon [1],rate of force-activated unbinding k^ou (Bell-Evans model) [2],"unbinding force Fr, centre of the Gaussian fit [3]","unbinding force Fr, mean [3]"
–,Y48pCMF cytochrome c (from UniProt P99999 1-105) (natural protein),357 nM,0.00358 s⁻¹,10000 M⁻¹ s⁻¹,–,–,–
7.4e-06 G0,Y48pCMF cytochrome c E104C (from UniProt P99999 1-105) (natural protein),–,–,–,48 s⁻¹,77 pN,91 pN
